Columns and labels:
Assay type in all cases: cell-based
[1] = test system: β-catenin; assay: β-catenin protein levels in HEK293 cells; conditions: different concentrations and time points
Experimental: In parallel, proteins from cytosolic and nuclear fractions were isolated from the UMR 106 cells after a 30 minute treatment with control medium, Wnt-3a conditioned medium, or 5×10^−7 M PTH (1-84). The proteins were transferred to a blotting membrane, and the immunoblots were stained with an anti-β-catenin antibody or antibody to a control protein (α-tubulin or histone). […] Moreover, cytosolic and nuclear β-catenin protein levels also were examined in embryonic kidney epithelial cells (HEK293) that were treated with different concentrations of PTH and harvested at different time points.

[2] = target: PTH1R/LRP6 complex (Homo sapiens, UniProt Q03431)
[3] = target: T1, LRP6 (Homo sapiens, UniProt O75581); assay: LRP6 phosphorylation at the PPPSP motif (Western blot); conditions: without added GSK3β; data not shown
T1 construct: The cell lysates were immunoprecipitated for endogenous LRP6; endogenous in cells; host or cells: UMR-106
Experimental: (§1) UMR-106 cells were treated with either PTH or Wnt-3a. The cell lysates were immunoprecipitated for endogenous LRP6, and the precipitated immunocomplexes were detected by Western blotting with an antibody that specifically recognizes the phosphorylated PPPSP motifs (aa, 1490) (Tamai et al., 2004). […] To further confirm the role of PTH in inducing phosphorylation of LRP5 and LRP6 individually, HEK293 cells were transfected with HA-tagged LRP5, and the phosphorylated LRP5 was detected by Western blotting of the anti-HA immunoprecipitates with Ab1490.
(§2) If the observation is true, then the phosphorylated PPPSP motif will serve as an Axin docking site.

[4] = target: T2, LRP6 (Rattus norvegicus, UniProt A0A0G2K0H3); assay: as above; conditions: UMR-106 cells, endogenous LRP6; data not shown
T2 construct: The cell lysates were immunoprecipitated for endogenous LRP6; endogenous in cells; host or cells: UMR-106
Experimental: as §1, §2

[5] = target: T3, LRP5 (Homo sapiens, UniProt O75197); assay: LRP5 PPPSP phosphorylation in HEK293 cells (Ab1490 Western blot); conditions: HEK293 cells transfected with HA-tagged LRP5; at 45 minutes; 5×10^−7 M PTH (1-84)
T3 construct: expressed in transfected cells; host or cells: HEK293
Experimental: HEK293 cells transfected with HA-tagged LRP5 were treated with conditioned medium containing Wnt-3a (lane 1), control medium with 5×10^−7 M PTH (1-84) for the indicated time periods (lane 3-5), or without PTH treatment (lane 2). Phosphorylated LRP5 was detected by Western blotting of the anti-HA immunoprecipitates with Ab1490, which specifically recognizes phosphorylated PPPSP sites within LRP5/6. […] VSVG-tagged LRP6 was cotransfected into HEK 293 cells with HA-Axin and GSK3β, and the cells were treated with or without 10^−7 M PTH (1-84) for the indicated time periods. The LRP6-associated Axin was determined by Western blotting of the anti-VSVG immunoprecipitates with anti-HA antibody. […] The LRP6-associated Axin was determined by Western blotting of the anti-VSVG immunoprecipitates with anti-HA antibody. […] The association of axin with wild type and mutant proteins was determined by Western blotting of the anti-VSVG immunoprecipitates with anti-HA antibody. […] Then luciferase activities were determined.
UMR-106 cells were treated with either PTH or Wnt-3a. The cell lysates were immunoprecipitated for endogenous LRP6, and the precipitated immunocomplexes were detected by Western blotting with an antibody that specifically recognizes the phosphorylated PPPSP motifs (aa, 1490) (Tamai et al., 2004). […]

[6] = test system: LRP6/Axin binding; assay: Axin-LRP6 binding immunoprecipitation assay; conditions: without added GSK3β; data not shown
[7] = target: T4, TGFβRII/PTH1R interaction (Homo sapiens, UniProt P37173+Q03431); assay: Co-immunoprecipitation of TGFβRII and PTH1R in 293 cells; conditions: cotransfected HEK293 cells; 10% FBS medium; PTH stimulation
T4 construct: The 293T cells endogenously expressed TGFβRII; endogenous in cells; host or cells: 293T
Experimental: Human embryonic kidney 293T cells in DMEM with 10% serum were treated with vehicle (water), TGF-β (2 ng/ml), or PTH (1-34) (50 nM) for 24 hours. The 293T cells endogenously expressed TGFβRII. The cells were cultured in DMEM with 10% serum and were split at 30%-40% confluent.
Immunoprecipitation assays were performed as described previously (Shi et al., 2004, J. Cell. Biol. 164:291-300). TGFβRII was immunoprecipitated from the cell extracts using anti-TGFβRII antibody (Santa Cruz Biotechnology, Inc.; 1:250 dilution), and the immunocomplex was detected by Western blotting with an antibody specific for PTH1R (Santa Cruz Biotechnology, Inc.; 1:200 dilution) to detect PTH1R protein. […] Furthermore, the interaction of PTH1R with TGFβRII can be in the form of monomers or dimers.
Next, the interaction was examined using a biochemical approach. PTH1R-HA was contransfected in HEK293 cells with Flag-TβRII. The cell lysate was subjected to HA immunoprecipitation, and associated TβRII was immunoblotted with anti-Flag antibody. TβRII specifically coprecipitated with PTH1R (FIG. 11) in 10% FBS medium, and the interaction was enhanced by PTH stimulation, whereas the kinase-dead mutant of TβRII lost the interaction with PTH1R (data not shown) even with treatment of PTH. The interaction of endogenous PTH1R and TβRII was also examined. […]

[8] = test system: TGFβ/Smad signaling; assay: TGFβ/Smad signaling after PTH pretreatment
Experimental: Panel B is a graph showing the decrease in activity from the SBE-luciferase reporter in the presence of PTH and PTH1R.
It has been reported that TGFβ-induced endocytosis of TGFβ/TβRII is mediated by Sara endosome. The response of TβRII to PTH was analyzed to determine whether it is the same as to TGFβ. […] The observation was confirmed by TGFβ-induced interaction between Smad2 and Smad4.

T2 sequence (A0A0G2K0H3 20-1611): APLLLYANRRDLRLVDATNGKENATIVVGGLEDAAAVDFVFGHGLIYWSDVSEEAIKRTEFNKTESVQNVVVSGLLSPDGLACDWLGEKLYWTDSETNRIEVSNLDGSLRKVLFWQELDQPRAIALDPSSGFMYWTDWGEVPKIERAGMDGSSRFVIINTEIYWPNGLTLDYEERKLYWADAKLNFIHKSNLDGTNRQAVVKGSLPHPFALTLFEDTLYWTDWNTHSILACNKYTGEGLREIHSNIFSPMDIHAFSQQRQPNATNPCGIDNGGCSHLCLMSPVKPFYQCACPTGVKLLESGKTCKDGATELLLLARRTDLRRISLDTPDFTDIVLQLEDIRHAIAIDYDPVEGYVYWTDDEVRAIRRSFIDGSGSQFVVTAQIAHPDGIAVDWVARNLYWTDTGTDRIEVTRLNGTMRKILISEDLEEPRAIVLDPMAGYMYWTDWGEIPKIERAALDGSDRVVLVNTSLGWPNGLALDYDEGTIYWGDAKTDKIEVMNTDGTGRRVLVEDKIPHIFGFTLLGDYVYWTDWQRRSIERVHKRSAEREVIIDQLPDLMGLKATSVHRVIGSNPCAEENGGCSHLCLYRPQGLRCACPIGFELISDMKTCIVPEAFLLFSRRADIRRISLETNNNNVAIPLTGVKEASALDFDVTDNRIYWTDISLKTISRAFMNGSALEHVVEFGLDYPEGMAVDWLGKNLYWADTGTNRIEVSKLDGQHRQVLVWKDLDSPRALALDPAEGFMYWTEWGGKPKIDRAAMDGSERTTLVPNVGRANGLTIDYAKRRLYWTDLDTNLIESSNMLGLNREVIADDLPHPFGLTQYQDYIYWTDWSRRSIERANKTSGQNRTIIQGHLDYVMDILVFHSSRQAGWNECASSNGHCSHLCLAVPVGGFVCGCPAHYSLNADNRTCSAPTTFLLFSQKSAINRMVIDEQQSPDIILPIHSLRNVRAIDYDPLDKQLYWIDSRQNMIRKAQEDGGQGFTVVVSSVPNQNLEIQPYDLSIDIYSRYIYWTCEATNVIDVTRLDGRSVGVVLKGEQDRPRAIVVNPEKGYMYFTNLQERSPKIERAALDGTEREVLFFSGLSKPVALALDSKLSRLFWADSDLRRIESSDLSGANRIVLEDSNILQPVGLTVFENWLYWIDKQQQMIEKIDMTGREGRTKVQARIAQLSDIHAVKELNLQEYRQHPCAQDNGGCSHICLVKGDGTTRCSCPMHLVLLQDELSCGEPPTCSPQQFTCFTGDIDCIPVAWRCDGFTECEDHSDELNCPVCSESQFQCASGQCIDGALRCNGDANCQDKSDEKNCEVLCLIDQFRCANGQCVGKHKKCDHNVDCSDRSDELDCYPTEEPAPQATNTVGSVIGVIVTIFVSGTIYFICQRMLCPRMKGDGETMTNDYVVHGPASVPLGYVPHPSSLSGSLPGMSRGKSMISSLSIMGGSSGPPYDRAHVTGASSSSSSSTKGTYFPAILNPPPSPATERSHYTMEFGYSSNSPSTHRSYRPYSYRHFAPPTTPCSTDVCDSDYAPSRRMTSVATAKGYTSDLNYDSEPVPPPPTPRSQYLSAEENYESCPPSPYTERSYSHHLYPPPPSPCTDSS
T4 sequence (Q03431 27-593): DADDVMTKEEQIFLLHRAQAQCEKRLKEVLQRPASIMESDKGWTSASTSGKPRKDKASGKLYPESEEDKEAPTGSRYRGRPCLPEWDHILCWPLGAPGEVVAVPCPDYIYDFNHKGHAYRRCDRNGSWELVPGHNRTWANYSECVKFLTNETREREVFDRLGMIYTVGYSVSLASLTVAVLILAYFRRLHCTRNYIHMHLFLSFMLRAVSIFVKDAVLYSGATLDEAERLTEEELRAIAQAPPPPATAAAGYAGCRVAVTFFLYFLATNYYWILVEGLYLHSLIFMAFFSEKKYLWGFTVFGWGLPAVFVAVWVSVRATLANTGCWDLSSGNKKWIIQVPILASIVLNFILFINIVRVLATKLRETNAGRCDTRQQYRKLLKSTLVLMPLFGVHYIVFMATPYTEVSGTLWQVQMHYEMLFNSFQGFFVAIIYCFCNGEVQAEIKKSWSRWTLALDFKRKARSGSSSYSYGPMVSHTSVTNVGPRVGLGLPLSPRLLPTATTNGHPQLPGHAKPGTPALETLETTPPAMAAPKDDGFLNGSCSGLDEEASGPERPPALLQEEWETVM
T4 sequence (P37173 23-567): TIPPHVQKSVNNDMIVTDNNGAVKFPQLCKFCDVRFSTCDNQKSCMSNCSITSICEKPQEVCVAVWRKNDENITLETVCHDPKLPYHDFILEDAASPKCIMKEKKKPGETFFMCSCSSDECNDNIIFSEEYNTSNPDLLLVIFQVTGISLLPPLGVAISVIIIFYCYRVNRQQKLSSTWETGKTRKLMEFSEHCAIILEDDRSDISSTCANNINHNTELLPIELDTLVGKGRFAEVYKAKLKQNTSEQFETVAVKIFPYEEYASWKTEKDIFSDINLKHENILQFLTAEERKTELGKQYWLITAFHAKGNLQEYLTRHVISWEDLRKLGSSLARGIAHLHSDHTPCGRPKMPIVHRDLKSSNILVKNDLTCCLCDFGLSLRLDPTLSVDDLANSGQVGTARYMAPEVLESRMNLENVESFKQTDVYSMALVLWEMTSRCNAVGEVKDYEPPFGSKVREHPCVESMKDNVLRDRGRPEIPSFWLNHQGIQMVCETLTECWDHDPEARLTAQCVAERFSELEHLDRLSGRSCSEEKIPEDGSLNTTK
T3 sequence (O75197 32-1615, species assumed): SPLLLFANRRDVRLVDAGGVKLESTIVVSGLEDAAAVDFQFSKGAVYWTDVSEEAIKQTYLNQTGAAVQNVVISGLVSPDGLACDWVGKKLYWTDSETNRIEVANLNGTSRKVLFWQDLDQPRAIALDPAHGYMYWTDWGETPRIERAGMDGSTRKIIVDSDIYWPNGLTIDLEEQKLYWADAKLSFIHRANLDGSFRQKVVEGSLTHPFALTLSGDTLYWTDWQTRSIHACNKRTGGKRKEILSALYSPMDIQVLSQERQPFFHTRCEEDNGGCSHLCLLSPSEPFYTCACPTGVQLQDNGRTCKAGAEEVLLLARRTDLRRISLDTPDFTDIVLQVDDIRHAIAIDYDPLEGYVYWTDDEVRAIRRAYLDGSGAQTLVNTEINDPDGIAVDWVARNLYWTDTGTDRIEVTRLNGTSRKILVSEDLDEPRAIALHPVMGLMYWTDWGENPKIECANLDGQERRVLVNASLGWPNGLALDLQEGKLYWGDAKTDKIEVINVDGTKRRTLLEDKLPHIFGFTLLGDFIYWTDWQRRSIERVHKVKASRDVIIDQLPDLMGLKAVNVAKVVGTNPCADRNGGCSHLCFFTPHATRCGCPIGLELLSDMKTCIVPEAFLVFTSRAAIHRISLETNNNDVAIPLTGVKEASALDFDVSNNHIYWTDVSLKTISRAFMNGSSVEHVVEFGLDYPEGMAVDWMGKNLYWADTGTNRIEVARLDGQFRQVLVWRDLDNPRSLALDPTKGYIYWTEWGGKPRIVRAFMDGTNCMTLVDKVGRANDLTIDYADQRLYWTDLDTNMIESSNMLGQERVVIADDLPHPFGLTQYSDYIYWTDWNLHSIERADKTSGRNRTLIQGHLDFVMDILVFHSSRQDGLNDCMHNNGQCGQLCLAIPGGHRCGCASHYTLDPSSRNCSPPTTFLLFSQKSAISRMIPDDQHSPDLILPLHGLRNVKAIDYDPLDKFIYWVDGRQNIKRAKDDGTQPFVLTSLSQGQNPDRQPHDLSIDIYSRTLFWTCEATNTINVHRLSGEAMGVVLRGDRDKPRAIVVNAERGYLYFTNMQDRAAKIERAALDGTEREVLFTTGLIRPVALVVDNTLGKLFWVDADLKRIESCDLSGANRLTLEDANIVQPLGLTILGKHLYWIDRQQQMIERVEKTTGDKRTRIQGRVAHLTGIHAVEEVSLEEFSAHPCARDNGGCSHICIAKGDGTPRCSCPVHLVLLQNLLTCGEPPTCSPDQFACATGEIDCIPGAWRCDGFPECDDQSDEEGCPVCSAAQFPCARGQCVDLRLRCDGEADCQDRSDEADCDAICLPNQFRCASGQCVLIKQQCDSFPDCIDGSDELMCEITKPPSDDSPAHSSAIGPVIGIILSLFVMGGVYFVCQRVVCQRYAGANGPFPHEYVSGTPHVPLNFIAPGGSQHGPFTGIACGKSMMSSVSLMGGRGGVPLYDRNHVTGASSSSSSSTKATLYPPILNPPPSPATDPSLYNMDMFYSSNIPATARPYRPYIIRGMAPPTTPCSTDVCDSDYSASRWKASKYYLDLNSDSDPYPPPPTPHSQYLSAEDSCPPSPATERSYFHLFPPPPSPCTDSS

Substance: PTH: Parathyroid hormone ligand, form not stated at the place; figure legends give PTH (1-84) or PTH (1-34)
- cytosolic and nuclear β-catenin protein levels [1]: stimulates protein levels of β-catenin in both the cytoplasm and the nucleus in a concentration and time dependent manner
- enhancement of interaction of PTH1R with LRP6N or LRP6 [2]: did not enhance the interaction of PTH1R with LRP6N or LRP6
- LRP6-associated PTH ligand (anti-VSVG immunoprecipitates, anti-PTH blot) ([2]; HEK 293 cells, 5×10^−7 M PTH (1-84) for 1 hour): immunoprecipitated only when both LRP6 and PTH1R were cotransfected
- phosphorylation of LRP6, PTH alone [3]: much weaker stimulation
- LRP6 phosphorylation at the PPPSP motif [4]: rapidly induced LRP6 phosphorylation at the PPPSP motif
- LRP5 phosphorylation (PPPSP) [5]: dramatically stimulated LRP5 phosphorylation
- Axin/LRP6 binding, PTH alone [6]: undetectable
- interaction of PTH1R-HA with Flag-TβRII [7]: enhanced
- phosphorylation of Smad2 by TGFβ after PTH pretreatment ([8]; C2C12 cells pretreated with PTH): largely inhibited
- inhibition by PTH1R of TGFβ activation of SBE luciferase reporter ([8]; cells expressing PTH1R): enhanced the inhibition
- TGFβ-induced interaction between Smad2 and Smad4 ([8]; pretreatment with PTH): inhibits the interaction
